The series is described as follows: soluble on expression in E. coli; label from the status in PepcDB or PDB records.
For “MSLELLSNRLEFLREAERLKDVLRSAHTSSGRPESTAEHSWRLCLMALAFEDQLAGLDLGKVLRMCVVHDLGEAIHGDIPAVEQAAHPDKGEQERADLLQLTRHLDAPLRDRLLALWDEYERGESAEALAVKALDKLETLLQHTQGDNPADFDYAFNLDYGRRYTDRAPLFKTLRELLDARTRQRLAVRRDA”, the “soluble on expression in E. coli” value was “not soluble”.
In the case of “MGSDKIHHHHHHMYLVEVFFTYRQPQKLPISNISYLINQIIEQWRYNGQIIGREIPLFVAVQNNEEGFALRVTCPEQQSLLPTFNNIQVDKALKQAKSAGIFFDSFQIIADDLNSDITYSKEVATWQVLYTTYLQSCSPLHSGDNLLPIPLYKQFKNIPHLSMDIIKWQENWQACDQLQMNGSILEQQALYEISDFNSHLTKHGYYLTQEIEKHTGIPTFYYLYRIGGDDLQSEQQRLCPNCQQKWHLDKPLFNLFHFKCDHCRLVSNLSWHWQ” it was “not soluble”; in that of “MSLRRDHTRTAQVTHVESLTNSPGVRENWPGWASPAVVERMVKSGVAKPWSHQVRAANLAHSGSNVIIATGISSGKSLGFLMPCTAAIAEGGSVLYLAPTKALAADQERKLAELAMPGVRAAVYDGDTPMEERSWARAHANYVLTNPDMLHRSIVARHPVWAGFLRRLSYVVVDEAHHYRGVFGSHVAQIMRRLRRVCGCYGAEPRFILASATTATPAETAQQLTGLPVVAVTGDGSARASLRFALVEPELTEKTGEQGAPMRRTATAVAAELLADLVSHEVSTLVFVRSRQAAELVALAAQRALADAGRPELARRVAAYRGGYLAEDRRRLEQRLRSGELLGLATTNALELGVDVSGLDAVVMAGWPGTRASLWQQAGRAGRSGRDALAVFVARDDPLDTYLVHHPDAIFGQDVEATVLDPDNPYVLAPHLCAAAEEEGHHHHHH”, “not soluble”.
Under “VPQIDTRDCGPAVLASVAKHYGSNYSIAYLRELSKTNKQGTTALGIVEAAKKLGFETRSIKADMTLFDYNDLTYPFIVHVIKGKRLQHYYVVYGSQNNQLIIGDPDPSVKVTRMSKERFQSEWTGLAIFLAPQPN” stands “not soluble”; under “MGSDKIHHHHHHMNITIVGAGATGGYFGARLAASGLNVTFLVREKRAAQLREKGLVIKSVVEDLTLEAPQIAINAEDIPACDLVLLGLKNYQLAASLPQLKVLVNRGAKILPFLNGVEHFEILAKELGQENVLGGVCKIISTLDSEGTIHHTSKVHQIIFGELEPSGKEFCLRLEQAMAKANFKVKYTENILNEIWSKYAFITVFSGVTSAGDLTTDQICAHEATVKVYRRSLEEMKSLADAYGAALSEDFVEQNVEGLPKYAKGSTSSMHQDMRKGLLLEVESLQGAAIRLAGRKNMELPTIETLYGLIKPYEMGSIG”, “not soluble”; under “MPMVRVATNLPDKDVPANFEERLTDLLAESMNKPRNRIAIEVLAGQRITHGASRNPVAVIKVESIGALSADDNIRHTQKITQFCQDTLKLPKDKVIITYFDLQPIHVGFNGTTVAAATM”, “soluble”.
Turning to “MTARNPLEAQAWALLEAVYDPELGLDVVNLGLIYDLVVEPPRAYVRMTLTTPGCPLHDSLGEAVRQALSRLPGVEEVEVEVTFEPPWTLARLSEKARRLLGWG”, the “soluble on expression in E. coli” value is reported as “soluble”.
As for “MSLKEGKEFEYLFWVGSMGSYDNRSQKIAISFAKLLNHAGVSFAILGNKEKNSGDTPRRLGNEFLFQELAEKNISEFEKNDVKKIVTIDPHAYNLFKNEYPDFGFEGEVYHHTEVLAELVKNGKLRPQHPLHETITFHDSCYLGRYNEVYDPPREILKAIPGVQLVEMERSRETGMCCGAGGGLMWMEEETGNRINVARTEQALAVNPSVISSGCPYCLTMLGDGTKAKEAEDQVKTYDVVELLAQSVLGADLKMGEKQEGHHHHHH”, the “soluble on expression in E. coli” value is recorded as “not soluble”.
Under “YHPVFSAKIEQRLIERFGVKRALVALDQPNEEAQRLQVSGLVSNYLTSTLKNGMVVTVGQGRNVSSVAHHIGVITPRDCKFVCGIGGIHPRGGMYNADHICRQLAKKYGGTSETLYAPAYAENREQKMAFMQNATVKQTLDLARKADVALVGIGDMSENSYMVDLGWFTPDEVVQSRLKQGVVGDFAGYDFFDIHGNVANTVMSDRVIGLGIEEFRPIAEVIAIAAENSKPLALLGALRTGAIDVIATSVSNALTVLNLDEQMHGNAASES” stands “not soluble”; under “MAHHHHHHMNEKNKDINKYTSTNNMYKLSENNHKSLLENLKRRGIIDDDDVYNTMLQVDRGKYIKEIPYIDTPVYISHGVTISAPHMHALSLKRLINVLKPGSRAIDVGSGSGYLTVCMAIKMNVLENKNSYVIGLERVKDLVNFSLENIKRDKPELLKIDNFKIIHKNIYQVNEEEKKELGLFDAIHVGASASELPEILVDLLAENGKLIIPIEEDYTQVLYEITKKNGKIIKDRLFDVCFVSLKKN”, “not soluble”.
In the case of “MGSDKIHHHHHHMTDKMQSLALAPVGNLDSYIRAANAWPMLSADEERALAEKLHYHGDLEAAKTLILSHLRFVVHIARNYAGYGLPQADLIQEGNIGLMKAVRRFNPEVGVRLVSFAVHWIKAEIHEYVLRNWRIVKVATTKAQRKLFFNLRKTKQRLGWFNQDEVEMVARELGVTSKDVREMESRMAAQDMTFDLSSDDDSDSQPMAPVLYLQDKSSNFADGIEDDNWEEQAANRLTDAMQGLDERSQDIIRARWLDEDNKSTLQELADRYGVSAERVRQLEKNAMKKLRAAIEA” it was “not soluble”; in that of “MGSDKIHHHHHHMYLKVYKEDVIEGLQKAANIIPAKTGAAYLRSIWLNAADGTLSVMATDSNIEFRGTYTAEVTEPGLAGVQGRAFVDLLRKLPAGEIVLQLDAEANVLRIEQGRRKYKLPVNDPVWFQNFSDFPADGAVVWSGDFLQELIDRIAFCISDEDAVEAIACLFMKPVAEGRIEACGLNGHQFAMLRFLHDDLHAKLPAEGVLVQKKYLGELKKWLGADEIELNISEKRMHLRTGDGRETFSLPLSSYQYPDYMNFIAKLQGEGVSNLEVDRKEGMDALDRLQIFNSDNNRCTYFDLSGGEVVLTAQGQDVGSASESLEASYDGDIRRIAFPTRNLIDIMNHYQSGRLRLTLTGAEGPCGISGEEDPEYQVIVMPMKIVEETYYSEEEV”, “not soluble”; in that of “MQPLFTQERRIFHKKLLDGNILATNNRGVVSNADGSNTRSFNIAKGIADLLHSETVSERLPGQTSGNAFEAICSEFVQSAFEKLQHIRPGDWNVKQVGSRNRLEIARYQQYAHLTALAKAAEENPELAAALGSDYTITPDIIVTRNLIADAEINRNEFLVDENIATYASLRAGNGNMPLLHASISCKWTIRSDRAQNARSEGLNLVRNRKGRLPHIVVVTAEPTPSRISSIALGTGEIDCVYHFALYELEQILQSLNYEDALDLFYIMVNGKRLKDISDLPLDLAV”, “soluble”.
Under “MSDWFQLDKEYMMSTYCRTKIAIERGEGCKLYDVDGKEYLDLFSGVGVNVLGYNHPKIVQTTMDQVTKSLHLPFHFLNPVAIEYAKKLVDCSLKNGKVFFTNSGTEATETTLKLIDKYRAITNEEREGIVVLKNSFHGRTLGALHFTRQESVYQNFPTTSIPVYEVERENIEQLEETIINENPIAILLEPVLGSGGIYPLSREYLHGVQNLCDKYNVILIVDEVQSGMGRTGKLFAYQNFNITPHIIQIGKGAGGGIPLGGIIVGEKLCDVFAPGDHGTTFAHSSMGTALGLTVLNTLLDDGLMQEAYEMSLYLNDKLQEIQKENSYYIEEVRHAGMMFGISLNDTNENVKKLQVELMEKGILVDVTQGNIIRLLPPYIITKEEIDTFITQFIFCIDKVAAVVSA” stands “not soluble”; under “MPRVGIITSDFKFYHDVIKQLRLWKIPFVSLDLKGNIPDDVVVILSSIRDDIDLPDQVKAQDGLDGIRRAIPRLLNKTMFKDLTIGIDPGPKPGIAVFGDDVLLEAFECPTVFSVRKFVDSISMSYSYENITIKIGNGDRPNRDIIMNRLSDVDISIEVVNEKNTSTPHKIHDNALSAARIAQINGLYPIKRIPVKFSRKNVYEKEFVTLKNVIENAAGTEGRSSNST”, “not soluble”.
Take “MASYRVAALYRFTRFEDPAAIQGPLAALCCSLGVKGTLLLAREGINGTIAGEDAAIEAVLAHIRALPGCADLTPKTAWAERMPFYRMKVRLKKEIVTLGEPDLDPTDAGTYVEPADWNALISDPDVLVIDTRNAYEVAVGRFEGAIDPQTASFADFPAWFRDWRKSVEAQRGPEAPLKVAMYCTGGIRCEKSTAFLKAEGVEQVFHLKGGVLDYLEQIPQPESLWRGECFVFDERVSVGHGLVKGDHVLCRGCRMPVSPQDQASPLYVEGVACPACHDQRNEEQKARAAERHRQVLHCEALGVDHVGATLPTKIDLEHHHHHH”: the “soluble on expression in E. coli” value is given as “not soluble”.
In the case of “MGHHHHHHSHMAFCAILLVPSLCRMPSLPTSPWAFPVHWAGFMFKPLDWQGNDFFPPQDEVLAPCLGIKTPLKHEPCASLPFSVLFQSSASQSLLGTMGSLSPHLCGHTMCPVNPELPLSFQADHRSAQPDACSPLCHPSSLLPSFHTASLPFSIHAHHSPLPCDLDPPLYLAETVSLLEEWGPPSSCPMQCKLTSHPARLTHLPPCLWGFAVALKPSWAGLAPSLLPPPRMSLCRPLSFLRHQCPWLPWQAHQGLVPWSPSMVAAACIVSPSGHCRCQPFIPHVFLGHGGLTSVSGECG” it was “not soluble”; in that of “MVGNMNREALFKTLTTGYLHFWSLSRKKLWLKGETSGNFQIIEEFKVDCDADAVLFKVTSLGPICHTGNYTCFYRSYDELVNSKS”, “soluble”; in that of “MTKQDQLIVEKMEQTYEAFSPKLANLIEALDAFKEHYEEYATLRNFYSSDEWFRLANQPWDDIPCGVLSEDLLFDMIGDHNQLLADILDLAPIMYKHM”, “not soluble”.
In the case of “MMRRGLLLLNLGTPNNADIRAVKLYLREFLTDKRVIDLPTIPRYILVYCLILPFRSPKSAQAYQSIWTEKGSPLLYHSQNLVTKLQSALKDEYKIALGMRYGTPSITTALAELKDCHSLTILPLFPQYSSAATGSAIEKTLSHLANQEIIPSIKIIRDFYQRPEYIQAQAKIMKPYIKDNFHLLFSYHGIPERHIHKSGCDTLCPQTCTPIYDKNQACYRAQCYQTSLLLAKELQLGTHQYTTAFQSRLGKTPWIKPYTDEIFAELISKGIKNIVVSCPSFVADCLETLEEIGIRAKEQWEKLGGEQFILTPCMNDHPEWIKAIQSIVNEQF” it was “not soluble”; in that of “MGHHHHHHSHMVETVSTKNTKNWHAPVVPAAWEAEAGESLEPWRWRLQWAGIASLHSSLGDRARLRLKKKKKKRKGHFPIQKSRKYVPFLKGICSSTPVGISRQVGQETEKRNKTQRQSIEKERGAQGTGALSLRGPAGALVSEFPQYLLIIIFTILARGV”, “not soluble”.
In the case of “MSLEGTQMLATNKKCWDTVAPYFFQVDCLPKYGPYTASEDEIRLFDSIRKKKVLDIGCGSGHSLQYMAEQGAEELWGLDLSSTQIEIANKTLKDWNPKLVCGAMEEEGDIPKGYFDIVYSIYALGWTSDLRKTLELIYSYVKPGGSFIFSWEHPVYSNLQYGTEEVAIKSSYHEETPITFETFKGENVQATLHKRKISTYINELNRAGFKIERIEEPEPSSSLDGELAEPSTKYYSLYKARMVPTTFIIKARKEGHHHHHH” it was “soluble”; in that of “MSVIKMTDLDLAGKRVFIRADLNVPVKDGKVTSDARIRASLPTIELALKQGAKVMVTSHLGRPTEGEYNEEFSLLPVVNYLKDKLSNPVRLVKDYLDGVDVAEGELVVLENVRFNKGEKKDDETLSKKYAALCDVFVMDAFGTAHRAQASTHGIGKFADVACAGPLLAAELDALGKALKEPARPMVAIVGGSKVSTKLTVLDSLSKIADQLIVGGGIANTFIAAQGHDVGKSLYEADLVDEAKRLLTTCNIPVPSDVRVATEFSETAPATLKSVNDVKADEQILDIGDASAQELAEILKNAKTILWNGPVGVFEFPNFRKGTEIVANAIADSEAFSIAGGGDTLAAIDLFGIADKISYISTGGGAFLEFVEGKVLPAVAMLEERAKK”, “soluble”.
